Patent US20150344570A1 (published 2015)

Target: T1, FcγRIa (human, UniProt P12314 16-292)
T1 construct: extracellular domain; also called FcgRI; FcgRIa; not shown: His tag attached to the C terminus
Test: SPR (Biacore), relative binding; control HoCon Ab GpH7-B3/GpL16-k0

T1 sequence (P12314 16-292): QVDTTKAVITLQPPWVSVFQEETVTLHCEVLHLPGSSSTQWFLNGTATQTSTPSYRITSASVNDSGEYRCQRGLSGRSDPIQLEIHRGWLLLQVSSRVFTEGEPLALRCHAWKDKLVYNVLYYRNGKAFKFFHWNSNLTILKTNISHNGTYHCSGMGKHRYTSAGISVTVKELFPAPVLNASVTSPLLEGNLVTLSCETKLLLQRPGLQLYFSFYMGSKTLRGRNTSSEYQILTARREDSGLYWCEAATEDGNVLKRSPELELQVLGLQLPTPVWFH

Row | Binder | Ho/Con_1a
1 | GpH7-B3 variant P271_10E/GpL16-k0 (antibody, human IgG1, kappa, Alteration in both H chains; also called Ho Ab P271_10E) heavy: not shown light: DIVMTQSPLSLPVTPGEPASISCQASESLVHSNRNTYLHWYLQKPGQSPQLLIYKVSNRFSGVPDRFSGSGSGTDFTLKISRVEAEDVGVYYCSQNTHVPPTFGQGTKVEIERTVAAPSVFIFPPSDEQLKSGTASVVCLLNNFYPREAKVQWKVDNALQSGNSQESVTEQDSKDSTYSLSSTLTLSKADYEKHKVYACEVTHQGLSSPVTKSFNRGEC | 103 % of control (=100)
2 | GpH7-B3 variant S267_14T/GpL16-k0 (antibody, human IgG1, kappa, Alteration in both H chains; also called Ho Ab S267_14T) heavy: not shown light: DIVMTQSPLSLPVTPGEPASISCQASESLVHSNRNTYLHWYLQKPGQSPQLLIYKVSNRFSGVPDRFSGSGSGTDFTLKISRVEAEDVGVYYCSQNTHVPPTFGQGTKVEIERTVAAPSVFIFPPSDEQLKSGTASVVCLLNNFYPREAKVQWKVDNALQSGNSQESVTEQDSKDSTYSLSSTLTLSKADYEKHKVYACEVTHQGLSSPVTKSFNRGEC | 107 % of control (=100)
3 | GpH7-B3 variant S324_10E/GpL16-k0 (antibody, human IgG1, kappa, Alteration in both H chains; also called Ho Ab S324_10E) heavy: not shown light: DIVMTQSPLSLPVTPGEPASISCQASESLVHSNRNTYLHWYLQKPGQSPQLLIYKVSNRFSGVPDRFSGSGSGTDFTLKISRVEAEDVGVYYCSQNTHVPPTFGQGTKVEIERTVAAPSVFIFPPSDEQLKSGTASVVCLLNNFYPREAKVQWKVDNALQSGNSQESVTEQDSKDSTYSLSSTLTLSKADYEKHKVYACEVTHQGLSSPVTKSFNRGEC | 106 % of control (=100)
4 | GpH7-B3 variant S324_09D/GpL16-k0 (antibody, human IgG1, kappa, Alteration in both H chains; also called Ho Ab S324_09D) heavy: not shown light: DIVMTQSPLSLPVTPGEPASISCQASESLVHSNRNTYLHWYLQKPGQSPQLLIYKVSNRFSGVPDRFSGSGSGTDFTLKISRVEAEDVGVYYCSQNTHVPPTFGQGTKVEIERTVAAPSVFIFPPSDEQLKSGTASVVCLLNNFYPREAKVQWKVDNALQSGNSQESVTEQDSKDSTYSLSSTLTLSKADYEKHKVYACEVTHQGLSSPVTKSFNRGEC | 106 % of control (=100)
5 | GpH7-B3 variant S267_18N/GpL16-k0 (antibody, human IgG1, kappa, Alteration in both H chains; also called Ho Ab S267_18N) heavy: not shown light: DIVMTQSPLSLPVTPGEPASISCQASESLVHSNRNTYLHWYLQKPGQSPQLLIYKVSNRFSGVPDRFSGSGSGTDFTLKISRVEAEDVGVYYCSQNTHVPPTFGQGTKVEIERTVAAPSVFIFPPSDEQLKSGTASVVCLLNNFYPREAKVQWKVDNALQSGNSQESVTEQDSKDSTYSLSSTLTLSKADYEKHKVYACEVTHQGLSSPVTKSFNRGEC | 107 % of control (=100)
6 | GpH7-B3 variant S267_10E/GpL16-k0 (antibody, human IgG1, kappa, Alteration in both H chains; also called Ho Ab S267_10E) heavy: not shown light: DIVMTQSPLSLPVTPGEPASISCQASESLVHSNRNTYLHWYLQKPGQSPQLLIYKVSNRFSGVPDRFSGSGSGTDFTLKISRVEAEDVGVYYCSQNTHVPPTFGQGTKVEIERTVAAPSVFIFPPSDEQLKSGTASVVCLLNNFYPREAKVQWKVDNALQSGNSQESVTEQDSKDSTYSLSSTLTLSKADYEKHKVYACEVTHQGLSSPVTKSFNRGEC | 107 % of control (=100)
7 | GpH7-B3 variant S267_06M/GpL16-k0 (antibody, human IgG1, kappa, Alteration in both H chains; also called Ho Ab S267_06M) heavy: not shown light: DIVMTQSPLSLPVTPGEPASISCQASESLVHSNRNTYLHWYLQKPGQSPQLLIYKVSNRFSGVPDRFSGSGSGTDFTLKISRVEAEDVGVYYCSQNTHVPPTFGQGTKVEIERTVAAPSVFIFPPSDEQLKSGTASVVCLLNNFYPREAKVQWKVDNALQSGNSQESVTEQDSKDSTYSLSSTLTLSKADYEKHKVYACEVTHQGLSSPVTKSFNRGEC | 106 % of control (=100)
8 | GpH7-B3 variant S337_11K/GpL16-k0 (antibody, human IgG1, kappa, Alteration in both H chains; also called Ho Ab S337_11K) heavy: not shown light: DIVMTQSPLSLPVTPGEPASISCQASESLVHSNRNTYLHWYLQKPGQSPQLLIYKVSNRFSGVPDRFSGSGSGTDFTLKISRVEAEDVGVYYCSQNTHVPPTFGQGTKVEIERTVAAPSVFIFPPSDEQLKSGTASVVCLLNNFYPREAKVQWKVDNALQSGNSQESVTEQDSKDSTYSLSSTLTLSKADYEKHKVYACEVTHQGLSSPVTKSFNRGEC | 105 % of control (=100)
9 | GpH7-B3 variant S298_09D/GpL16-k0 (antibody, human IgG1, kappa, Alteration in both H chains; also called Ho Ab S298_09D) heavy: not shown light: DIVMTQSPLSLPVTPGEPASISCQASESLVHSNRNTYLHWYLQKPGQSPQLLIYKVSNRFSGVPDRFSGSGSGTDFTLKISRVEAEDVGVYYCSQNTHVPPTFGQGTKVEIERTVAAPSVFIFPPSDEQLKSGTASVVCLLNNFYPREAKVQWKVDNALQSGNSQESVTEQDSKDSTYSLSSTLTLSKADYEKHKVYACEVTHQGLSSPVTKSFNRGEC | 106 % of control (=100)
10 | GpH7-B3 variant P271_19Q/GpL16-k0 (antibody, human IgG1, kappa, Alteration in both H chains; also called Ho Ab P271_19Q) heavy: not shown light: DIVMTQSPLSLPVTPGEPASISCQASESLVHSNRNTYLHWYLQKPGQSPQLLIYKVSNRFSGVPDRFSGSGSGTDFTLKISRVEAEDVGVYYCSQNTHVPPTFGQGTKVEIERTVAAPSVFIFPPSDEQLKSGTASVVCLLNNFYPREAKVQWKVDNALQSGNSQESVTEQDSKDSTYSLSSTLTLSKADYEKHKVYACEVTHQGLSSPVTKSFNRGEC | 104 % of control (=100)
11 | GpH7-B3 variant S239_10E/GpL16-k0 (antibody, human IgG1, kappa, Alteration in both H chains; also called Ho Ab S239_10E) heavy: not shown light: DIVMTQSPLSLPVTPGEPASISCQASESLVHSNRNTYLHWYLQKPGQSPQLLIYKVSNRFSGVPDRFSGSGSGTDFTLKISRVEAEDVGVYYCSQNTHVPPTFGQGTKVEIERTVAAPSVFIFPPSDEQLKSGTASVVCLLNNFYPREAKVQWKVDNALQSGNSQESVTEQDSKDSTYSLSSTLTLSKADYEKHKVYACEVTHQGLSSPVTKSFNRGEC | 106 % of control (=100)
12 | GpH7-B3 variant Q295_12R/GpL16-k0 (antibody, human IgG1, kappa, Alteration in both H chains; also called Ho Ab Q295_12R) heavy: not shown light: DIVMTQSPLSLPVTPGEPASISCQASESLVHSNRNTYLHWYLQKPGQSPQLLIYKVSNRFSGVPDRFSGSGSGTDFTLKISRVEAEDVGVYYCSQNTHVPPTFGQGTKVEIERTVAAPSVFIFPPSDEQLKSGTASVVCLLNNFYPREAKVQWKVDNALQSGNSQESVTEQDSKDSTYSLSSTLTLSKADYEKHKVYACEVTHQGLSSPVTKSFNRGEC | 101 % of control (=100)
13 | GpH7-B3 variant P271_18N/GpL16-k0 (antibody, human IgG1, kappa, Alteration in both H chains; also called Ho Ab P271_18N) heavy: not shown light: DIVMTQSPLSLPVTPGEPASISCQASESLVHSNRNTYLHWYLQKPGQSPQLLIYKVSNRFSGVPDRFSGSGSGTDFTLKISRVEAEDVGVYYCSQNTHVPPTFGQGTKVEIERTVAAPSVFIFPPSDEQLKSGTASVVCLLNNFYPREAKVQWKVDNALQSGNSQESVTEQDSKDSTYSLSSTLTLSKADYEKHKVYACEVTHQGLSSPVTKSFNRGEC | 103 % of control (=100)
14 | GpH7-B3 variant Q295_10E/GpL16-k0 (antibody, human IgG1, kappa, Alteration in both H chains; also called Ho Ab Q295_10E) heavy: not shown light: DIVMTQSPLSLPVTPGEPASISCQASESLVHSNRNTYLHWYLQKPGQSPQLLIYKVSNRFSGVPDRFSGSGSGTDFTLKISRVEAEDVGVYYCSQNTHVPPTFGQGTKVEIERTVAAPSVFIFPPSDEQLKSGTASVVCLLNNFYPREAKVQWKVDNALQSGNSQESVTEQDSKDSTYSLSSTLTLSKADYEKHKVYACEVTHQGLSSPVTKSFNRGEC | 105 % of control (=100)
15 | GpH7-B3 variant S267_19Q/GpL16-k0 (antibody, human IgG1, kappa, Alteration in both H chains; also called Ho Ab S267_19Q) heavy: not shown light: DIVMTQSPLSLPVTPGEPASISCQASESLVHSNRNTYLHWYLQKPGQSPQLLIYKVSNRFSGVPDRFSGSGSGTDFTLKISRVEAEDVGVYYCSQNTHVPPTFGQGTKVEIERTVAAPSVFIFPPSDEQLKSGTASVVCLLNNFYPREAKVQWKVDNALQSGNSQESVTEQDSKDSTYSLSSTLTLSKADYEKHKVYACEVTHQGLSSPVTKSFNRGEC | 104 % of control (=100)

The remaining lines, values ahead:

Row | Ho/Con_1a | Binder
16 | 105 % of control (=100) | GpH7-B3 variant S337_16H/GpL16-k0 (antibody, human IgG1, kappa, Alteration in both H chains; also called Ho Ab S337_16H) heavy: not shown light: DIVMTQSPLSLPVTPGEPASISCQASESLVHSNRNTYLHWYLQKPGQSPQLLIYKVSNRFSGVPDRFSGSGSGTDFTLKISRVEAEDVGVYYCSQNTHVPPTFGQGTKVEIERTVAAPSVFIFPPSDEQLKSGTASVVCLLNNFYPREAKVQWKVDNALQSGNSQESVTEQDSKDSTYSLSSTLTLSKADYEKHKVYACEVTHQGLSSPVTKSFNRGEC
17 | 106 % of control (=100) | GpH7-B3 variant S337_18N/GpL16-k0 (antibody, human IgG1, kappa, Alteration in both H chains; also called Ho Ab S337_18N) heavy: not shown light: DIVMTQSPLSLPVTPGEPASISCQASESLVHSNRNTYLHWYLQKPGQSPQLLIYKVSNRFSGVPDRFSGSGSGTDFTLKISRVEAEDVGVYYCSQNTHVPPTFGQGTKVEIERTVAAPSVFIFPPSDEQLKSGTASVVCLLNNFYPREAKVQWKVDNALQSGNSQESVTEQDSKDSTYSLSSTLTLSKADYEKHKVYACEVTHQGLSSPVTKSFNRGEC
18 | 106 % of control (=100) | GpH7-B3 variant T335_01G/GpL16-k0 (antibody, human IgG1, kappa, Alteration in both H chains; also called Ho Ab T335_01G) heavy: not shown light: DIVMTQSPLSLPVTPGEPASISCQASESLVHSNRNTYLHWYLQKPGQSPQLLIYKVSNRFSGVPDRFSGSGSGTDFTLKISRVEAEDVGVYYCSQNTHVPPTFGQGTKVEIERTVAAPSVFIFPPSDEQLKSGTASVVCLLNNFYPREAKVQWKVDNALQSGNSQESVTEQDSKDSTYSLSSTLTLSKADYEKHKVYACEVTHQGLSSPVTKSFNRGEC
19 | 103 % of control (=100) | GpH7-B3 variant Y296_02A/GpL16-k0 (antibody, human IgG1, kappa, Alteration in both H chains; also called Ho Ab Y296_02A) heavy: not shown light: DIVMTQSPLSLPVTPGEPASISCQASESLVHSNRNTYLHWYLQKPGQSPQLLIYKVSNRFSGVPDRFSGSGSGTDFTLKISRVEAEDVGVYYCSQNTHVPPTFGQGTKVEIERTVAAPSVFIFPPSDEQLKSGTASVVCLLNNFYPREAKVQWKVDNALQSGNSQESVTEQDSKDSTYSLSSTLTLSKADYEKHKVYACEVTHQGLSSPVTKSFNRGEC
20 | 105 % of control (=100) | GpH7-B3 variant T335_02A/GpL16-k0 (antibody, human IgG1, kappa, Alteration in both H chains; also called Ho Ab T335_02A) heavy: not shown light: DIVMTQSPLSLPVTPGEPASISCQASESLVHSNRNTYLHWYLQKPGQSPQLLIYKVSNRFSGVPDRFSGSGSGTDFTLKISRVEAEDVGVYYCSQNTHVPPTFGQGTKVEIERTVAAPSVFIFPPSDEQLKSGTASVVCLLNNFYPREAKVQWKVDNALQSGNSQESVTEQDSKDSTYSLSSTLTLSKADYEKHKVYACEVTHQGLSSPVTKSFNRGEC
21 | 106 % of control (=100) | GpH7-B3 variant S337_14T/GpL16-k0 (antibody, human IgG1, kappa, Alteration in both H chains; also called Ho Ab S337_14T) heavy: not shown light: DIVMTQSPLSLPVTPGEPASISCQASESLVHSNRNTYLHWYLQKPGQSPQLLIYKVSNRFSGVPDRFSGSGSGTDFTLKISRVEAEDVGVYYCSQNTHVPPTFGQGTKVEIERTVAAPSVFIFPPSDEQLKSGTASVVCLLNNFYPREAKVQWKVDNALQSGNSQESVTEQDSKDSTYSLSSTLTLSKADYEKHKVYACEVTHQGLSSPVTKSFNRGEC
22 | 105 % of control (=100) | GpH7-B3 variant T335_13S/GpL16-k0 (antibody, human IgG1, kappa, Alteration in both H chains; also called Ho Ab T335_13S) heavy: not shown light: DIVMTQSPLSLPVTPGEPASISCQASESLVHSNRNTYLHWYLQKPGQSPQLLIYKVSNRFSGVPDRFSGSGSGTDFTLKISRVEAEDVGVYYCSQNTHVPPTFGQGTKVEIERTVAAPSVFIFPPSDEQLKSGTASVVCLLNNFYPREAKVQWKVDNALQSGNSQESVTEQDSKDSTYSLSSTLTLSKADYEKHKVYACEVTHQGLSSPVTKSFNRGEC
